Laboratory results: US20050100554A1 (published 2005)

B1: Human papillomavirus 16 E7 (other)
chain: MHGDTPTLHEYMLDLQPETTDLYCYEQLNDSSEEEDEIDGPAGQAEPDRAHYNIVTFCCKCDSTLRLCVQSTHVDIRTLEDLLMGTLGIVCPICSQKP
notes: also called HPV 16 E7; HPV16 E7
B2: soggy-1 gene (other)
chain: APIHDADAQESSLGLTGLQSLLQGFSRLFLKGNLLRGIDSLFSAPMDFRGLPGNYHKEENQEHQLGNNTLSSHLQIDKMTDNKTGEVLISENVVASIQPAEGSFEGDLKVPRMEEKEALVPIQKATDSFHTELHPRVAFWIIKLPRRRSHQDALEGGHWLSEKRHRLQAIRDGLRKGTHKDVLEEGTESSSHSRLSPRKTHLLYILRPSRQL
notes: also called DKKL1-pending; cbe_4279962
B3: eukaryotic translation elongation factor 1 alpha 1-like 14 (other)
chain: MQSERGITIDISLWKFETSKYYVTIIDAPGHRDFIQNMITGTSQADCAVLIVAAGVGEFEAGISKNGQTREHALLAYTLGVKQLIVGVNKMDSTEPPYSQKRYEEIVKEVSTYIKKIGYNPDTVAFVPISGWNGDNMLEPSANMPWFKGWKVTRKDGNASGTTLLEALDCILPPTRPTDKPLGLPLQDVYKIGGIGTVPVGRVETGVLKPGMVVTFGPVNVTTEVKSVEMHHEALGEALPGDNVGFNVKNVSVKDVRRGNVAGDSKNDPPMEAAGFPAQVIILNHPGQISAGYAPVLDCHTAHIACKFAELKEKIDRRSGKKLEDGPKFLKSGDAAIVDMVPGKPMCVESFSDYPPLGCFAVRDMRQTVAVGVIKAVDKKAAGAGKVTKSAQKAQKAK
notes: also called EEF1A1L14; cbe_3773649
B4: DAD1 (other)
chain: SASVVSVISRFLEEYLSSTPQRLKLLDAYLLYILLTGALQFGYCLLVGTFPFNSFLSGFISCVGSFILAVCLRIQINPQNKADFQGISPERAFADFLFASTILHLVVMNFVG
notes: also called cbe_4268208
B5: Human papillomavirus 16 E2 (other)
chain: METLCQRLNVCQDKILTHYENDSTDLRDHIDYWKHMRLECAIYYKAREMGFKHINHQVVPTLAVSKNKALQAIELQLTLETIYNSQYSNEKWTLQDVSLEVYLTAPTGCIKKHGYTVEVQFDGDICNTMHYTNWTHIYICEEASVTVVEGQVDYYGLYYVHEGIRTYFVQFKDDAEKYSKNKVWEVHAGGQVILCPTSVFSSNEVSSPEIIRQHLANHPAATHTKAVALGTEETQTTIQRPRSEPDTGNPCHTTKLLHRDSVDSAPILTAFNSSHKGRINCNSNTTPIVHLKGDANTLKCLRYRFKKHCTLYTAVSSTWHWTGHNVKHKSAIVTLTYDSEWQRDQFLSQVKIPKTITVSTGFMSI
notes: also called HPV 16 E2; cbe_251088

Legend:
NDUFS3 = target: T1, NDUFS3 (human, UniProt O75489 37-264); experiment: Y2H; INT ID 176
T1 construct: also called cbe_4268611
T1 sequence (O75489 37-264 limits assumed): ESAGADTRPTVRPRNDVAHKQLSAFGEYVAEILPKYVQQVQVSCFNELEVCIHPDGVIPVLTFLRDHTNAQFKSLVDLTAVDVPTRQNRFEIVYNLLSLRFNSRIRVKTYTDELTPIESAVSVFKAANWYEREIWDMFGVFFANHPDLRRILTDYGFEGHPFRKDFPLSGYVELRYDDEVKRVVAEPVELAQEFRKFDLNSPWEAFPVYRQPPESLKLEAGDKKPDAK

PSMC1 = target: T2, PSMC1 (human, UniProt P62191 2-440); experiment: Y2H; INT ID 179
T2 construct: also called proteosome 26S subunit; proteosome subunit PMSC1
T2 sequence (P62191 2-440 limits assumed): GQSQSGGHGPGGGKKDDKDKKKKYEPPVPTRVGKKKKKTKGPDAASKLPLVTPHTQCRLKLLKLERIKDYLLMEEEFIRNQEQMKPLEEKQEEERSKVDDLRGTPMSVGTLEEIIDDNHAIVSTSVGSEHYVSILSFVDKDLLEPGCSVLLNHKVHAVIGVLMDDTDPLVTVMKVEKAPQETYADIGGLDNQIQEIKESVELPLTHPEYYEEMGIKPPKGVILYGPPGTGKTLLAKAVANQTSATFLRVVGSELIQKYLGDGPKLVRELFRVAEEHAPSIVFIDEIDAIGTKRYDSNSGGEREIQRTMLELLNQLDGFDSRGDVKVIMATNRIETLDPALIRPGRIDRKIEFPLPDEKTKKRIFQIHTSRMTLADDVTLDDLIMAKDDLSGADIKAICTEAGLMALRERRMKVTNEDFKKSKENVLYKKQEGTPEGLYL

PTPN21 = target: T3, PTPN21 (human, UniProt Q16825 1-1174); experiment: Y2H; INT ID 174
T3 construct: also called cbe_4260642
T3 sequence: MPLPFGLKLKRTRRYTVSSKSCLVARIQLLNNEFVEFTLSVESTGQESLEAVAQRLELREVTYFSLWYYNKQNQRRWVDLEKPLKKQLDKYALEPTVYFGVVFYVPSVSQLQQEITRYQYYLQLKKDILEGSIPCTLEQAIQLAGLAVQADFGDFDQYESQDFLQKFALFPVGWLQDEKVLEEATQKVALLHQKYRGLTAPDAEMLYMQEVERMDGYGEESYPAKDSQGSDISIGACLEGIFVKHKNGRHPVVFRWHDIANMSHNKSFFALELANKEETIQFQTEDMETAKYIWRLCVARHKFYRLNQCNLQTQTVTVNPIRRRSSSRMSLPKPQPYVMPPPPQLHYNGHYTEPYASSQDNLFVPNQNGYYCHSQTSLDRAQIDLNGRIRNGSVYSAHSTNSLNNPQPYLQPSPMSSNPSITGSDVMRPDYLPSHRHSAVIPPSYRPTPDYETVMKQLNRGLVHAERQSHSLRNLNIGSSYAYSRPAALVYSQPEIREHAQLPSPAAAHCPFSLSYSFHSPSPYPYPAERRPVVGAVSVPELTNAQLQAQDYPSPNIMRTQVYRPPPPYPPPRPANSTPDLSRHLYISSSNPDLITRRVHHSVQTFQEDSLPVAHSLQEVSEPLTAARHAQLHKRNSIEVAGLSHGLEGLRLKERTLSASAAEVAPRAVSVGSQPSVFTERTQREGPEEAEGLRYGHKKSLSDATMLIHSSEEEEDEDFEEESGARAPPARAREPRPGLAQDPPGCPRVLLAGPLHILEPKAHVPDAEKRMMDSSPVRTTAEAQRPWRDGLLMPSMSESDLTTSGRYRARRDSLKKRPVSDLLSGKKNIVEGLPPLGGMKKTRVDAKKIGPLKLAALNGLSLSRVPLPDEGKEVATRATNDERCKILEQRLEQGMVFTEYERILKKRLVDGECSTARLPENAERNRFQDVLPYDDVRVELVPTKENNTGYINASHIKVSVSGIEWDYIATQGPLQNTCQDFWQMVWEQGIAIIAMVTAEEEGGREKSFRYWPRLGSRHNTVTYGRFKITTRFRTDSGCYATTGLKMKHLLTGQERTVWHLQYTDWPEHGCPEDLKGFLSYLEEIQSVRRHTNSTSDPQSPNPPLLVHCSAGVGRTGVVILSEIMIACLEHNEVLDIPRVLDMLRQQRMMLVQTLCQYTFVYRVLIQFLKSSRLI

STX4A = target: T4, STX4A (human, UniProt Q12846 1-297); experiment: Y2H; INT ID 181
T4 construct: also called syntaxin 4; cbe_4270186
T4 sequence: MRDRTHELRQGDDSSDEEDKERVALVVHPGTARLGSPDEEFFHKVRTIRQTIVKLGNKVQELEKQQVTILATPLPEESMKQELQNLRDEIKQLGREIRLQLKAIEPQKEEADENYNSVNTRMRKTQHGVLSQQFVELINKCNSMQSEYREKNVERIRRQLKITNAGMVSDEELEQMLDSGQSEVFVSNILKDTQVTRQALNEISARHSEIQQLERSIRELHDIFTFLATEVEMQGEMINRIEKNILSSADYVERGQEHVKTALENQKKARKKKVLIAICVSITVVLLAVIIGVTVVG

[1] = target: T5, tissue factor pathway inhibitor (lipoprotein-associated coagulation inhibitor) (human, UniProt P10646 29-304); experiment: Y2H; INT ID 172
T5 construct: also called TFPI; cbe_3834015
T5 sequence: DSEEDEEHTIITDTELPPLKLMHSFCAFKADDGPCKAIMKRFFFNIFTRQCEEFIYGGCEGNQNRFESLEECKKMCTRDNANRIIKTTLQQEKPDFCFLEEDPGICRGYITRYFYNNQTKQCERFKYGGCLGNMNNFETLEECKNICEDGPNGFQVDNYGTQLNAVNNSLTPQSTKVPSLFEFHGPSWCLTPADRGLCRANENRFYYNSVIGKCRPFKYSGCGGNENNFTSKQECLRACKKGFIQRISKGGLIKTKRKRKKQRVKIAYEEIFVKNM

keratin 4 = target: T6, keratin 4 (human, UniProt P19013 1-520); experiment: Y2H; INT ID 168
T6 construct: also called KRT4; cbe_3474077
T6 sequence (P19013 other isoform, or with tags, fused parts or gaps limits assumed): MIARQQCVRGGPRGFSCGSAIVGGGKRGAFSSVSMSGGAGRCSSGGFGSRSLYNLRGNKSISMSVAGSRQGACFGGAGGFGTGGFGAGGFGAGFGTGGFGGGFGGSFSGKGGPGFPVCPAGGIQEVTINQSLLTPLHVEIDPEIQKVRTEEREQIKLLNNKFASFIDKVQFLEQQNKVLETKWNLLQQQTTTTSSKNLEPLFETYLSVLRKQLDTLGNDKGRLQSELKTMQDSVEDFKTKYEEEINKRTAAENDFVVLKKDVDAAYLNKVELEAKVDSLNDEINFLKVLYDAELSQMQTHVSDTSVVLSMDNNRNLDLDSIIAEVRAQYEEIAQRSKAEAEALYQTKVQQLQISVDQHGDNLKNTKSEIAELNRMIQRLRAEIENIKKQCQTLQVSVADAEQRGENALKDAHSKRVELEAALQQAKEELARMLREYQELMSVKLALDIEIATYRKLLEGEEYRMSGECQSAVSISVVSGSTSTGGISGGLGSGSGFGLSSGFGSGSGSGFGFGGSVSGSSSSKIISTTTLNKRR

MPP3 = target: T7, MPP3 (human, UniProt Q13368 1-585); experiment: Y2H; INT ID 173
T7 construct: also called cbe_3921620
T7 sequence: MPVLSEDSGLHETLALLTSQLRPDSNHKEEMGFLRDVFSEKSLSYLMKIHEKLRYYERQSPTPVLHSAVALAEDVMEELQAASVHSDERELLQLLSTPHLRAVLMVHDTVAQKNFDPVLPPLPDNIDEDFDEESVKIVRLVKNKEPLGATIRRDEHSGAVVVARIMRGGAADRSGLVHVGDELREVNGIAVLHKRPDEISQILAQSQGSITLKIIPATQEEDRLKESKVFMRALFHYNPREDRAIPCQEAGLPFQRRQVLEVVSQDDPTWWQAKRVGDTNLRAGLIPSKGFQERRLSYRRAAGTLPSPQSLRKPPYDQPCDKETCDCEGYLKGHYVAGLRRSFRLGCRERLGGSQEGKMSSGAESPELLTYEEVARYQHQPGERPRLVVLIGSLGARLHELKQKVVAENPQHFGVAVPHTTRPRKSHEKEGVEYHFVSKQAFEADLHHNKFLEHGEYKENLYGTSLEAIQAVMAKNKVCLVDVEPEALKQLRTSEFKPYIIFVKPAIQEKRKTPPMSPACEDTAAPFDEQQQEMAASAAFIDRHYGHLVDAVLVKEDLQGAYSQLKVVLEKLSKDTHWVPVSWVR

[2] = target: T8, zinc finger protein ZNF140-like protein (human, UniProt Q9NR11 1-478); experiment: Y2H; INT ID 170
T8 construct: also called LOC55828; cbe_3787129
T8 sequence (Q9NR11 whole entry): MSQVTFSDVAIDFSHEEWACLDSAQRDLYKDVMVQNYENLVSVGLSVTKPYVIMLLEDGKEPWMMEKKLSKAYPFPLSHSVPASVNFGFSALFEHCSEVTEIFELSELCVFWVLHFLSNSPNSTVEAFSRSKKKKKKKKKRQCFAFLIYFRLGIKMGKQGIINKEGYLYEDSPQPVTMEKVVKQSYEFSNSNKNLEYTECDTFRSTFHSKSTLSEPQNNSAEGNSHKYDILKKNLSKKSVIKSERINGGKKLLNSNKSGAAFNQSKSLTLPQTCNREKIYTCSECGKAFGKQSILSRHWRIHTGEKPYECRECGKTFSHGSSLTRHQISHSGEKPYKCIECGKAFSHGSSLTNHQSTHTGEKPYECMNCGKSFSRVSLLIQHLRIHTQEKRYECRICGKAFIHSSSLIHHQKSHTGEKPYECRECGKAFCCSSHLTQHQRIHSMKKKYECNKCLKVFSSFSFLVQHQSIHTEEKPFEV

[3] = target: B5; experiment: Y2H; INT ID 151
[4] = target: B1; experiment: Y2H; INT ID 169
[5] = target: B5; experiment: Y2H; INT ID 150
[6] = target: T9, Human Papillomavirus 1a L2 (Human Papillomavirus 1a, UniProt P03105 1-507); experiment: Y2H; INT ID 146
T9 construct: also called HPV 1a L2; cbe_252041
T9 sequence: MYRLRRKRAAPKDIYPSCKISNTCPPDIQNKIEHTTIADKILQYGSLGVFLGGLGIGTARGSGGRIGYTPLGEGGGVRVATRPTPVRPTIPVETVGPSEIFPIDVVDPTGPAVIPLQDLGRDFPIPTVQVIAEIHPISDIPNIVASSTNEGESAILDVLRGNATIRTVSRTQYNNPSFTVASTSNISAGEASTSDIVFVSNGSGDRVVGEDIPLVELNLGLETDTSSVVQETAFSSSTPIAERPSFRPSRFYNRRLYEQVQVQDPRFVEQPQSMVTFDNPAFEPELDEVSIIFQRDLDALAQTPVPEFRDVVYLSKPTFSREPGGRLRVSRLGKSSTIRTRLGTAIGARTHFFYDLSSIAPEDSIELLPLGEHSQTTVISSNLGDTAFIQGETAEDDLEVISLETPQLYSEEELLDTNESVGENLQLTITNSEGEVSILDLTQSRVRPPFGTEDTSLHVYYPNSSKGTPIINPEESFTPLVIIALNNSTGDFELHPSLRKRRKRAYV

EFEMP1 = target: T10, EFEMP1 (human, UniProt Q12805 18-493); experiment: Y2H; INT ID 147
T10 construct: also called cbe_2321057
T10 sequence: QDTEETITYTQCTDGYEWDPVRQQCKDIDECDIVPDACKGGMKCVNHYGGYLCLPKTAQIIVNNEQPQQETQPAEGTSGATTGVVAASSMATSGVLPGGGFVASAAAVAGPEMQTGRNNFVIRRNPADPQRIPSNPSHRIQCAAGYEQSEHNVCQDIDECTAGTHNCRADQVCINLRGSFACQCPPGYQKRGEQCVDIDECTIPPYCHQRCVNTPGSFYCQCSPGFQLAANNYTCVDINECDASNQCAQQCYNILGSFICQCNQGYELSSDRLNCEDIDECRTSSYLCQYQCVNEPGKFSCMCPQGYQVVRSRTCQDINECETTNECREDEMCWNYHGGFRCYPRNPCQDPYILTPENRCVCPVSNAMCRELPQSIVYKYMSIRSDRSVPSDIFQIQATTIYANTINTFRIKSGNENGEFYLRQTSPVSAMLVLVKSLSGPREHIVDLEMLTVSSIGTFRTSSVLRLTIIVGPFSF

## B1
NDUFS3
  binding result: binds
PSMC1
  binding result: binds
PTPN21
  binding result: binds
STX4A
  binding result: binds
[1]
  binding result: binds
Keratin 4
  binding result: binds
MPP3
  binding result: binds
[2]
  binding result: binds

## B2
[3]
  binding result: binds

## B3
[4]
  binding result: binds

## B4
[5]
  binding result: binds

## B5
[6]
  binding result: binds
EFEMP1
  binding result: binds
